According to US20140366219A1, “Increasing Soybean Defense Against Pests” (priority 2011, published 2014):

Legend:
AtMES9 = molecular target: T1, AtMES9 (Arabidopsis thaliana, UniProt O23171); settings: esterase activity toward MeSA; cited from earlier work
T1 sequence (O23171 1-256): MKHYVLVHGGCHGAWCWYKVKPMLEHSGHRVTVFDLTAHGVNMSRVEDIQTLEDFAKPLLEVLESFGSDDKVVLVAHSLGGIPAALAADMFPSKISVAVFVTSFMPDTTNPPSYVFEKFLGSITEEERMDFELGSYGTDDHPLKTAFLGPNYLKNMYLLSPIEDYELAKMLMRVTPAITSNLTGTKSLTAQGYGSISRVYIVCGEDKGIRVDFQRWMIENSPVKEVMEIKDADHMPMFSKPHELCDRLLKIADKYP

NtSABP2 = molecular target: T2, NtSABP2 (Nicotiana tabacum, UniProt Q6RYA0); settings: esterase activity toward MeSA; cited from earlier work
T2 sequence (Q6RYA0 1-260): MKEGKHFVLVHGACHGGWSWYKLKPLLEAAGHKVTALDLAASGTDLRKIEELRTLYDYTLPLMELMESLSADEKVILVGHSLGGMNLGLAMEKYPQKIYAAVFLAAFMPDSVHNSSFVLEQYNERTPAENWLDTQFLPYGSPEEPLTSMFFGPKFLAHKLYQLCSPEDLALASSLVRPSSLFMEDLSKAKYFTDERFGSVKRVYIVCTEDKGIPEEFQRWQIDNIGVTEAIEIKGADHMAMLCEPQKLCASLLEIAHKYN

AtMES1 = molecular target: T3, AtMES1 (Arabidopsis thaliana, UniProt Q8S8S9); settings: esterase activity toward MeSA; cited from earlier work
T3 sequence (Q8S8S9 1-263): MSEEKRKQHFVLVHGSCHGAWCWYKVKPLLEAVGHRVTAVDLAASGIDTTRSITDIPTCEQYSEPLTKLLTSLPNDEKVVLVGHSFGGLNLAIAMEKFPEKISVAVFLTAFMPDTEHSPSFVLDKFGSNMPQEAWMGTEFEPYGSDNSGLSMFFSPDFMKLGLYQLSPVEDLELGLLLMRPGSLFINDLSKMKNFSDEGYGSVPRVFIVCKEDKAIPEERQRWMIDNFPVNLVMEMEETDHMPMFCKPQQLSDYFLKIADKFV

PtSABP2-1 = settings: esterase activity toward MeSA; cited from earlier work
StMES1 = settings: esterase activity toward MeSA; cited from earlier work
PtSABP2-2 = settings: esterase activity toward MeSA; cited from earlier work
[1] = substrate: COC(=O)c1ccccc1O; assay: Two-step radiochemical methyl ester esterase assay, kinetic parameters of GmSABP2-1; format: biochemical, soybean; settings: other: MeSA 5 μM to 100 μM, Lineweaver-Burk; 25.0 °C
Procedure: A two-step radiochemical esterase assay was performed to determine the activity of E. coli-expressed Glyma16g26060 following a protocol previously reported by (Forouhar et al., Proc. Natl. Acad. Sci. USA 102: 1773-1778, 2005). The reaction of the first step was the reaction of substrate 10 μM MeSA and purified recombinant E. coli-expressed Glyma16g26060 for 30 min at 25° C. After that, the sample was boiled to stop the reaction and denature the enzyme. The second reaction step was started with the addition of 3 μM ^14C labeled S-adenosyl-L-methionine (SAM) with a specific activity of 51.4 mCi/mmol (Perkin Elmer, Boston, Mass., USA), and respective known purified methyltransferase with high activity. Here, GmSAMT1 mentioned previously was used for SA methyltransferase enzyme. The reaction was preceded for 30 min at 25° C. Then radiolabeled products were extracted and the radioactivity was counted using a liquid scintillation counter.
Appropriate enzyme concentrations and incubation time were determined in time-course assays so that the reaction velocity was linear during the assay period. To determine the Km for MeSA, the concentrations of MeSA were independently varied in the range from 5 μM to 100 μM. Lineweaver-Burk plots were made to obtain apparent Km value. Optimal pH for GmSABP2-1 was assayed from pH 6.0 to pH 9.0. Final values are an average of three independent measurements.

SCN race 2 = assay: Nematode infection and demographics assay in transgenic soybean hairy roots; format: in vivo, Heterodera glycines; settings: for reduction of susceptibility: susceptibility of vector control in susceptible background set at 100%; for (J3+J4)/total SCN ratio: overexpressing transgenic hairy roots, two weeks after inoculation
Text: The soybean hairy root transformation system by infection with A. rhizogenes harboring the target genes were modified and used to study soybean resistance against SCN. A. rhizogenes K599 harboring the target gene, vector control and A. rhizogenes K599 alone were used to inoculate the TN02-275 soybeans, which are susceptible to SCN race 2. To better evaluate the resistance of the target gene, A. rhizogenes harboring the vector control and A. rhizogenes K599 alone were also used to inoculate the TN02-226 soybeans, which are resistant to SCN race 2. Generation of soybean hairy roots was modified as follows: First, soybean seeds were sterilized with chlorine gas. Second, a single layer of mature soybean seeds with intact seed coats were placed in open Petri dish, which was put in a bell jar desiccator within a fume hood. A beaker with 100 ml bleach was also placed in the desiccator and added 5 ml concentrated (12N) HCl along the side of the beaker. Then the seeds were kept in the closed desiccator immediately and maintained in the chlorine gas atmosphere overnight (about 16 h). After sterilization, seeds were transferred to the autoclaved filter paper moistened with sterilized distilled water in the Petri dishes for germination in a laminar flow hood. The germinated soybean seeds were sowed in sterilized vermiculite and six seeds were grown in each cell of 18-cell germination tray. The overnight cultured bacteria lawn of A. rhizogenes K599 with binary vector pJL-OFP, pJL-OFP-35S::GUS or pJL-OFP-35S::GmSAMT1 from LB medium plate containing […] kanamycin, or a culture of A. rhizogenes K599 lacking the binary vector grown in LB medium without any antibiotics was collected and suspended in 1 ml of sterile distilled water, respectively. Soybean cotyledonary nodes and upper hypocotyls of 5-day-old seedlings with unfolded cotyledons were stabbed three times by the syringe containing the bacterial suspension. In the first week, the trays were covered with the sterile transparent lids to retain high humidity. In the subsequent three weeks, plants were transferred into pots and the A. rhizogenes wounding sites were covered by wet sterile vermiculite to continually keep high humidity. Each day soybean plants were watered using sterile B&D solution containing 1 mM CaCl2, 0.5 mM KH2PO4, 10 μM Fe-citrate, 0.25 mM MgSO4, 0.25 mM K2SO4, 1 μM MnSO4, 2 μM H3BO4, 0.5 μM ZnSO4, 2 μM CuSO4, 0.1 μM CoSO4, 0.1 μM Na2MoO4, and 1 mM KNO3. The growth conditions for soybean plants were 12 h light/12 h dark at 28° C./25° C. with irradiance from fluorescent bulbs at 150-200 μmol m^−2·s^−1. After about four weeks, the hairy roots grew to approximately 10 cm in length. Soybean transgenic roots were detected based on OFP expression, using a fluorescence stereomicroscope (Olympus SZX12 fluorescence microscope and OFP filter). The tap root and non-transgenic roots were excised under the wounding site. Transgenic roots harboring pJL-OFP-35S::GUS screened by OFP signal were immersed in GUS solution (1 mM X-Gluc), 0.5 mM potassium ferrocyanide, 0.1% (v/v) TRITON™ X-100, 100 mM sodium phosphate buffer pH 7.0), and incubated at 37° C. overnight. In the following day, the X-Gluc solution was discarded. The roots were washed repeatedly with 70% ethanol to remove chlorophyll. Transgenic roots with visual GUS stain were recorded.
To easily compare the SCN infection, one transgenic root was left for the SCN inoculation. […]

GmICS1 (Glyma01g25690) = assay: qRT-PCR of GmICS1 in transgenic hairy roots; set-up: species or system soybean; settings: Williams 82 transgenic hairy roots, without SCN treatment
GmICS2 (Glyma03g17420) = assay: qRT-PCR of GmICS2 in transgenic hairy roots; set-up: species or system soybean; settings: Williams 82 transgenic hairy roots, without SCN treatment

COC(=O)c1ccccc1O [MeSA, methyl salicylate]
Km (AtMES9): 147 µM
Km (NtSABP2): 8.6 µM
Km (AtMES1): 57.3 µM
Km (PtSABP2-1): 68.2 µM
Km (StMES1): 57.9 µM
Km (PtSABP2-2): 24.6 µM

B1: GmSABP2-1 (Glycine max) (protein)
chain: MGSQNCMDRKHYVLVHGACHGAWCWYKLKPRLESAGHKVTVLDLAASGTNMKKIEDVDTFSEYSAPLLQLMATIPSNEKLVLVGHSLGGLNIALAMEKFPEKVAVGVFLTAFAPDTEHHPSYVLEKYNERTPLAAWLDTEFAPSGNKTSMFFGPNFLSDKLYQLSPIEDLELAKTLARPSSLFMEDLTKQKNFSKEGYGSVPRAFIVCTEDLGIPLEYQLLMIQNVGFNDVVEVKDADHMVMLCKPQELFDSLQQIATKYA
Km [1]: 46.2 ± 2.2 µM

B2: GmSAMT1: soybean salicylic acid methyltransferase gene (SEQ ID NO: 1), over-expressed in transgenic hairy roots via pJL-OFP-35S::GmSAMT1 (nucleic acid)
DNA: ATGGAAGTAGCACAGGTACTCCACATGAACGGTGGCGTTGGAGACGCAAGCTATGCAAACAACTCCCTTGTTCAGCAAAAGGTGATTTGTTTGACAAAGCCCATAAGAGAGGAAGCCATAAGAAGCCTCTATTGCAGCACACACCCCAGAAGCTTGGCAATTGCAGATTTGGGTTGCTCTTCTGGACCAAACACTTTATTTGTTGTGTCTGAATTCATAAAAATTGTGGAGAAGCTTTGCCGAGAGCTGAACCACAAATCTCCAGAATACAAAGTCTTTCTGAATGATCTCCCTGGGAATGACTTCAACAACATCTTCAAGTCTCTTGACAGCGTCAAAGAGAAATTGTGTGATGAAATGGAAAGTGGGATCGGTCCATGCTACTTCTCGGGTGTTCCCGGTTCTTTCTATGGAAGGGTTTTCCCATATCAAAGTCTTCATTTTGTCCATTCCTCATACAGCCTTCAATGGCTATCTAAGGTTCCTGAGGGTGTAGACAACAACAAGGGCAATGTTTACATAGGCAGTACGAGCCCCAAAAATGTTGTGAGAGCTTACTATGAGCAATTTCAGAGAGATTTCTCTCTTTTTCTCAAGTGTCGTGCAGAGGAATTGGTTGAAGGAGGACGCATGGTTCTCACATTTTTGGGAAGAAGAAGCGATGATCCATCTAGCAAGGATGGTTGCTACATTTGGGAGCTTTTGGCTACTGCTCTTAGTGATATGGTCTTGCAGGGAATCATAAGAGAAGAGCAATTAGATACTTTTAACATCCCTCAATACACTCCATCCCCATCTGAAGTGAAATTGGAAGTTCTTAAAGAAGGATCATTCGCCATCAATCGTCTAGAGGTTTCTGAGGTGAATTGGAATGCTCTCGATGAGTGGAATGCTCTAGACTTTGAATCTGAAAGGTCTGAATCACTTAGTGATGGTGAATACAATGTGGCACAGTGCATGAGGGCTGTGGCAGAACCTATGCTGATTAGCCACTTTGGTGAAGCTATCATTGAAGAGGTTTTTTGCCGCTACCAGCAAATCTTGGCTGAACGTATGTCCAAGGAGAAAACCAAGTTCATCAATGTTACCATATTATTGACTAGAAAAGCATAA
modifications: Glycine Max
reduction of susceptibility (SCN race 2; TN02-275 background): 85.6%
reduction of susceptibility (SCN race 2; Williams 82 background): 71.2%
(J3+J4)/total SCN ratio (SCN race 2; TN02-275 background): 3.4%
(J3+J4)/total SCN ratio (SCN race 2; Williams 82 background): 5.3%
GmICS1 transcript abundance relative to controls (GmICS1 (Glyma01g25690)): 5.3 times
GmICS2 transcript abundance relative to controls (GmICS2 (Glyma03g17420)): 8.2 times
